The text below walks through data of patent publication US20210017226A1 (PEPTION, published 2021).

The target of experiment [1] is T1, PTD10 (Hs-PDGF-B_136-145), synthetic peptide IEIVRKKPIFC (human).
T1 peptide: IEIVRKKPIFC
The experiment can be described thus: dot blot, anti-6His Ab-HRP detection.

Experiment [2] concerns the target T2, PTD8 (Ec-AP_159-168), synthetic peptide LVAHVTSRKC (Escherichia coli).
T2 construct: also called control peptide (unrelated) in the Cas9 blots
T2 peptide: LVAHVTSRKC
The experiment can be described thus: dot blot, anti-6His Ab-HRP detection.

In experiment [3] the target is T2, PTD8 (Ec-AP_159-168), synthetic peptide …. As to the kind of experiment: dot blot, AP fusion as 1st Ab, NBT/BCIP.
Experiment [4] shares this target. As to the kind of experiment: dot blot, peptide spotted on NC membrane, anti-6His Ab-HRP detection.
In experiment [5] the target is T3, Cas9 protein without any tag (no tag), recombinant Streptococcus pyogenes Cas9 (Streptococcus pyogenes, UniProt Q99ZW2 1-1368).
T3 construct: also called Cas9 (no tag); tagless Cas9
As to the kind of experiment: dot blot (non-denatured) and western blot (denatured), anti-6His Ab-HRP detection. On the technique in general: In western blotting, separated proteins are transferred to a membrane and probed.

Experiment [6] addresses T4, purified horseradish peroxidase (HRP) protein (horseradish, UniProt P00433 31-338).
T4 sequence (looked up): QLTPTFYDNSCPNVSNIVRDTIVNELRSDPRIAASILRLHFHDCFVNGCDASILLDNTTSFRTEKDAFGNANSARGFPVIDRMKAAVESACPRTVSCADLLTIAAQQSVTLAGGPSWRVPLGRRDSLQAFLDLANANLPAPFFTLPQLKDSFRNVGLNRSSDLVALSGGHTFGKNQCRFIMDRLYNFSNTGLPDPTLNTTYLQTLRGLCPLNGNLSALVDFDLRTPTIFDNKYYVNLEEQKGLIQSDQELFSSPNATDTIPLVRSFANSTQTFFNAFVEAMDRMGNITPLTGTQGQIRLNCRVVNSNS
As to the kind of experiment: dot blot, HRP captured by V5C2-L-HRPC2 bound to immobilized PTD19, chromogenic substrate.

Ends that are not written are not given here.

T3 sequence (Q99ZW2 whole entry): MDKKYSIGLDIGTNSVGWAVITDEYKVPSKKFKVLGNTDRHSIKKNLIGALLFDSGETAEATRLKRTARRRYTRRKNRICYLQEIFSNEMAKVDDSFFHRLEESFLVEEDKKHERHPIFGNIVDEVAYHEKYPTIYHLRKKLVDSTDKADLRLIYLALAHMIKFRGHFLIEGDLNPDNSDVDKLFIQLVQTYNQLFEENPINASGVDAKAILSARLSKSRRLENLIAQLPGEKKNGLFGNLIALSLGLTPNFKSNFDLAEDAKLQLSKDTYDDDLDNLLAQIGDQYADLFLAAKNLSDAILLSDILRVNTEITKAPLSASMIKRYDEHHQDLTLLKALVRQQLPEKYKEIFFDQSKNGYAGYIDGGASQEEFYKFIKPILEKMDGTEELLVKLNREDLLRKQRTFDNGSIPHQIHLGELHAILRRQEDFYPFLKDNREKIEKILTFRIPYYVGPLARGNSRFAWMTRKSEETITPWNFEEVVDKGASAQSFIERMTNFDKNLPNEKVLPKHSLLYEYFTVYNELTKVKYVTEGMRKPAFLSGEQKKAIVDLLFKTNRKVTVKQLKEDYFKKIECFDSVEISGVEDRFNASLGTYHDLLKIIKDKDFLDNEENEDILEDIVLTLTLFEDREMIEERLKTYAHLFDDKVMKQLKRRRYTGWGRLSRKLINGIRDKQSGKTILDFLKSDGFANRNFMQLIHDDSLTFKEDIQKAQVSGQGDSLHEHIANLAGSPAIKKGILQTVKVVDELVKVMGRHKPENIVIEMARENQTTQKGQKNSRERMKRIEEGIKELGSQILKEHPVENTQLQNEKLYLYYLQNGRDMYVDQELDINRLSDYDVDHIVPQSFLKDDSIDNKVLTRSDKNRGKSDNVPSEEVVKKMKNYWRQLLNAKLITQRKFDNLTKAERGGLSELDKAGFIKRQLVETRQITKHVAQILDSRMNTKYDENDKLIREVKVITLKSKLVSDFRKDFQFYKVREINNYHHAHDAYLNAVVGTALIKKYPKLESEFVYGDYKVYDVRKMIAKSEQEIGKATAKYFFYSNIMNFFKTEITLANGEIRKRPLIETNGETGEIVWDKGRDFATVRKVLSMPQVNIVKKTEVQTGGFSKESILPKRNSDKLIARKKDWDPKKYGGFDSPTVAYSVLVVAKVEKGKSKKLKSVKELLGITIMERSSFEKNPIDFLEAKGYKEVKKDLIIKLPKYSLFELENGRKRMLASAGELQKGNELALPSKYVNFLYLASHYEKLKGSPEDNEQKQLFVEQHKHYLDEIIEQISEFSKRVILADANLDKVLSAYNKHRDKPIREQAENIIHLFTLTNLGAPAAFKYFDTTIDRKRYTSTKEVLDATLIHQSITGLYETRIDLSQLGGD

B1: PTD20 (2GS6H), synthetic linker-His-tag oligopeptide (peptide)
peptide: GSGSHHHHHH
notes: also called linker-His-tag only; negative control
Consider B1, for which the binding result in experiment [1] and in experiment [2] was “no binding” throughout.

B2: C9-813-CAA2 (dimer, parallel-linker-antiparallel), recombinant CAAP oligopeptide-AP fusion protein (designed binder, not shown: small tags and cut ends; large carriers)
chain: MHHHHHHELLLSVEVQQLCYPENLEYLFIEKL
notes: also called rAb C9-813-CAA2; dimer construct
For B2, the binding result in experiment [3] is given as “no binding”.
With LLQVDVILLCYPENLEQIKIRLFGSGSHHHHHH (designed binder, also: dimer, also called sAb dimer; CCAAP sAb dimer) [PTD14 (Sp-C9_CAA813-821PAPH), synthetic His-tagged CAAP oligopeptide dimer], the binding result was “no binding” in experiment [4] and “binds” in experiment [5].
With EYRLYLRALCYPENLSRAYLSYEGSGSHHHHHH (designed binder, also: dimer, parallel and antiparallel), in experiment [2], the binding result is listed as “binds”.

B3: V5C2-L-HRPC2, purified polypeptide with two CAAP box dimer arms designed to interact with V5 epitope and HRP (designed binder)
chain: MSRKEARELCYPENGLEALIRSGGGSGGGSGGGSYYLRKRILCYPENQVLERSNEGSGSKLLEHHHHHH
In the case of B3, in experiment [6], the binding result is “binds”.
DLDYAQLRDKCYPENEDRLQSYDLDGSGSHHHHHH (designed binder, also: dimer, parallel and antiparallel, also called Anti-PDGF sAb): in experiment [1], the binding result is given as “binds”.
